Test results: the supplement of paper PMC10065799, “High-throughput profiling of sequence recognition by tyrosine kinases and SH2 domains using bacterial peptide display” (eLife, 2023)

Assays:
[1] = biological target: Grb2 SH2 (UniProt P62993); test: SH2 binding enrichment of the phosphorylated peptide, bacterial display (enrichment ratio); higher = better substrate or ligand; peptides without Tyr show the background
[2] = biological target: c-Src SH2; test: as above
[3] = biological target: SHP2-C SH2; test: as above
[4] = biological target: EPHB2 (UniProt P29323); test: phosphorylation enrichment, bacterial display (enrichment ratio); higher = better substrate or ligand; peptides without Tyr show the background
[5] = biological target: Hck (UniProt P08631); test: as above
Chain of Hck (P08631 whole entry, looked up): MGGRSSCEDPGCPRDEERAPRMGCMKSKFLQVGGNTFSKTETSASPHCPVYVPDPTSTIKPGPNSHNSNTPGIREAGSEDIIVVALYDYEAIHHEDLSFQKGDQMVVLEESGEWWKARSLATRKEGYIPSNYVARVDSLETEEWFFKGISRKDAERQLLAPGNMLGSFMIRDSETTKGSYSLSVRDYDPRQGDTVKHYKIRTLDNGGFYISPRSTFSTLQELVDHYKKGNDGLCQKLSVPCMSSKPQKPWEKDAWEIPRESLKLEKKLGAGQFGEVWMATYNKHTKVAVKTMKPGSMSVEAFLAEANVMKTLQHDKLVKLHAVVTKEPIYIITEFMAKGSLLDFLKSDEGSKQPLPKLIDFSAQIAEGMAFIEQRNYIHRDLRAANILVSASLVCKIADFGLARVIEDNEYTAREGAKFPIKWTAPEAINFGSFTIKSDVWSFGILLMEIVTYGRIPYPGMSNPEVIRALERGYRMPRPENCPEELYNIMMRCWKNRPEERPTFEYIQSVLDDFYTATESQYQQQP

[6] = biological target: FGFR1 (UniProt P11362); test: as above
Chain of FGFR1 (P11362 whole entry, looked up): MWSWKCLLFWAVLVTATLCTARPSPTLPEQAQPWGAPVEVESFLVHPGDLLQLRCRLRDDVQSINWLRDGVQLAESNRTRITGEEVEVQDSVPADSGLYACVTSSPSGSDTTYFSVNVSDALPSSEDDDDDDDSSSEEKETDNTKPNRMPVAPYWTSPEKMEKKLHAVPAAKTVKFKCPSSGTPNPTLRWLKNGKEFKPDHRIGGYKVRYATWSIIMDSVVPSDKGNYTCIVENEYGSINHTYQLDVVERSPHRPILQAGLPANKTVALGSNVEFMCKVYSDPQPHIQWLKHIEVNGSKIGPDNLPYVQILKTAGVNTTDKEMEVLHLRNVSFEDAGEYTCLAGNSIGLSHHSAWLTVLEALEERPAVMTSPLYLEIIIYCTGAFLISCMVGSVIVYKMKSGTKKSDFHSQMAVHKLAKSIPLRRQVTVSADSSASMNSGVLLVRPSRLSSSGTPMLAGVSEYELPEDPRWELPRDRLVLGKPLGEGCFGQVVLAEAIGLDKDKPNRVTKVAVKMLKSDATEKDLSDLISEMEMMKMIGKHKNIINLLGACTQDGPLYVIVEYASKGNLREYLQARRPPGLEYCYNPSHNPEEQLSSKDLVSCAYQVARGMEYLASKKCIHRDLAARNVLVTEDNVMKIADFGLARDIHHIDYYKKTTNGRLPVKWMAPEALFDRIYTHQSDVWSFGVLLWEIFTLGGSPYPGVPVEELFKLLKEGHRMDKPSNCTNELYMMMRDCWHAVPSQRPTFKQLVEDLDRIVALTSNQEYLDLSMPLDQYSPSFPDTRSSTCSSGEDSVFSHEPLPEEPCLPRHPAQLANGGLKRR

[7] = biological target: Fes (UniProt P07332); test: as above
[8] = biological target: FGFR3 (UniProt P22607); test: as above
Chain of FGFR3 (P22607 whole entry, looked up): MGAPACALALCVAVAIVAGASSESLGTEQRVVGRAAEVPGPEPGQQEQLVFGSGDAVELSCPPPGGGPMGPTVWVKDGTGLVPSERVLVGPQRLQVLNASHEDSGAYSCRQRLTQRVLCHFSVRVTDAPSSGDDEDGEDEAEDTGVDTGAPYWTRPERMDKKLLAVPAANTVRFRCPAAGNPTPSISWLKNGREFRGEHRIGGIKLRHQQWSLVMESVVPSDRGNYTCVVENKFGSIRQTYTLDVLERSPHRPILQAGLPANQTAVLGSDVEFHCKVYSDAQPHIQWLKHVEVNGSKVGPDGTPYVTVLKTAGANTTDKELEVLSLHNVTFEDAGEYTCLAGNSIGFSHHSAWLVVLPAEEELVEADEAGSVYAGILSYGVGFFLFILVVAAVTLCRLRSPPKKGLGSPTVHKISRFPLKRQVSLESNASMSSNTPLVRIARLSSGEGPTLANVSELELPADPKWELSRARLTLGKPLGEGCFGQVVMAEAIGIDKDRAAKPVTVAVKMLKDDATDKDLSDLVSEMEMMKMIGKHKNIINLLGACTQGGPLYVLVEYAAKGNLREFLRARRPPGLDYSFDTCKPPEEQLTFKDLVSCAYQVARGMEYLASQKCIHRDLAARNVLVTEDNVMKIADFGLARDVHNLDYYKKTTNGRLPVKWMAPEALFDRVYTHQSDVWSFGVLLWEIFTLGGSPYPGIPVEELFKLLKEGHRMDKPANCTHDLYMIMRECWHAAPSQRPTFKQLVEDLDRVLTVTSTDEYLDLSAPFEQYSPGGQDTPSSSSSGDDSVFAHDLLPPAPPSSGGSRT

[9] = biological target: Jak2 (UniProt O60674); test: as above
Chain of Jak2 (O60674 whole entry, looked up): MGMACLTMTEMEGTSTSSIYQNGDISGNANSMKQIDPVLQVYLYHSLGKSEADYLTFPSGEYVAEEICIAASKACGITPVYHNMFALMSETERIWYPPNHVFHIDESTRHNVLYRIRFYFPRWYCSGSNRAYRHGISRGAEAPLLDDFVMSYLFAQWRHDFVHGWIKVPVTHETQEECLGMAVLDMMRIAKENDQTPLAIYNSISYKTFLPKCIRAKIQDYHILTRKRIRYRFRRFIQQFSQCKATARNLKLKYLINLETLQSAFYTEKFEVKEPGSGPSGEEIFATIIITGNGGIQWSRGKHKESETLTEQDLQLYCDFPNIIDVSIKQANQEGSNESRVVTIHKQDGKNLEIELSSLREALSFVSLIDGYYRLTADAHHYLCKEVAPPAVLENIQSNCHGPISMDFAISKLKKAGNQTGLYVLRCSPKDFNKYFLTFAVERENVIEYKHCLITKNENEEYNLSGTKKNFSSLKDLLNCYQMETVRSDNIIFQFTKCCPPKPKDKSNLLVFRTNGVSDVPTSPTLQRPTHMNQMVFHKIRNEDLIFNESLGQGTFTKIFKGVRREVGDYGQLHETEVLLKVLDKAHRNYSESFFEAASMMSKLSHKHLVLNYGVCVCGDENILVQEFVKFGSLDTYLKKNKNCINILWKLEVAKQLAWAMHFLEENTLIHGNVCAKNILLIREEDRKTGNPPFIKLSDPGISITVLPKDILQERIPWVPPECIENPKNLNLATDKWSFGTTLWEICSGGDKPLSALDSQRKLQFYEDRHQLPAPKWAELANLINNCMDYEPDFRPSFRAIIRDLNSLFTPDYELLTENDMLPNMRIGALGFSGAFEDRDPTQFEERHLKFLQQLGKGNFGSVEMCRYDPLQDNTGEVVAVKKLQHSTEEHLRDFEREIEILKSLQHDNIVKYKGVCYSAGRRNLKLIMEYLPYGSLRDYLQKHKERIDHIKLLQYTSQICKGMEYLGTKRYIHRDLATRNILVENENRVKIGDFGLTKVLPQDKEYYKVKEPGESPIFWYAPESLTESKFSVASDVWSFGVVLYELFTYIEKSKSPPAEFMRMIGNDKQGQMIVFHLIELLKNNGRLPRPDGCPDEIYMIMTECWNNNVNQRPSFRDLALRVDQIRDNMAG

[10] = biological target: MERTK (UniProt Q12866); test: as above
[11] = biological target: EPHB1 (UniProt P54762); test: as above
Chain of EPHB1 (P54762 whole entry, looked up): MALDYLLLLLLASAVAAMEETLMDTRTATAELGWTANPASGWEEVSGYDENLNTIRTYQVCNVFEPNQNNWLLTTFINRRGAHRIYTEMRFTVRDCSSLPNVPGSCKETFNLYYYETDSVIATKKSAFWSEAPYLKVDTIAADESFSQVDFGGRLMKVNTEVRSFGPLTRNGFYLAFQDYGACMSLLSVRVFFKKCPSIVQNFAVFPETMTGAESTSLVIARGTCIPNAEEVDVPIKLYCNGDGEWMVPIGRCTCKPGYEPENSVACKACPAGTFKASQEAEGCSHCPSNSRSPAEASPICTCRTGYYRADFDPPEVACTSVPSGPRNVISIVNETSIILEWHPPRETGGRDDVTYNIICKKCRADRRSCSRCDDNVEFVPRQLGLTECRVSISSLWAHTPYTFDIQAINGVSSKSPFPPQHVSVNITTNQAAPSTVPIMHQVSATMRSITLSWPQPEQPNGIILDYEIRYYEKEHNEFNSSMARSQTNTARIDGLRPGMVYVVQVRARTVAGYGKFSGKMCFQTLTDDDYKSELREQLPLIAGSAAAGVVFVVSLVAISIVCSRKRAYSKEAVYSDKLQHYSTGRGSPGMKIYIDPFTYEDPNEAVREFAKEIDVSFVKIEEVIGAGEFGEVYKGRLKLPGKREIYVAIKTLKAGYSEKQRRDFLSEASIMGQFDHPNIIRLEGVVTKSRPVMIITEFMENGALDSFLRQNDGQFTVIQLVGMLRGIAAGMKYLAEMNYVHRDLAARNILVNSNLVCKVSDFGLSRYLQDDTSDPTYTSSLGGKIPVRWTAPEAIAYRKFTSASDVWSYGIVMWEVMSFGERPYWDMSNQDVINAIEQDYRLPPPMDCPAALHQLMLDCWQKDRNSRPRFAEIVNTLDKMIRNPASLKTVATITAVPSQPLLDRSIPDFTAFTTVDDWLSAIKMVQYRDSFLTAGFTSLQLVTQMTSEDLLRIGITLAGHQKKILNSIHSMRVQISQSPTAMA

[12] = system: c-Src; test: as above
[13] = system: AncSZ; test: as above
[14] = system: c-Abl (mouse); test: as above
[15] = system: Fer (mouse); test: as above
[16] = biological target: Fyn (UniProt P06241); test: as above
Chain of Fyn (P06241 whole entry, looked up, the tested form may be a part): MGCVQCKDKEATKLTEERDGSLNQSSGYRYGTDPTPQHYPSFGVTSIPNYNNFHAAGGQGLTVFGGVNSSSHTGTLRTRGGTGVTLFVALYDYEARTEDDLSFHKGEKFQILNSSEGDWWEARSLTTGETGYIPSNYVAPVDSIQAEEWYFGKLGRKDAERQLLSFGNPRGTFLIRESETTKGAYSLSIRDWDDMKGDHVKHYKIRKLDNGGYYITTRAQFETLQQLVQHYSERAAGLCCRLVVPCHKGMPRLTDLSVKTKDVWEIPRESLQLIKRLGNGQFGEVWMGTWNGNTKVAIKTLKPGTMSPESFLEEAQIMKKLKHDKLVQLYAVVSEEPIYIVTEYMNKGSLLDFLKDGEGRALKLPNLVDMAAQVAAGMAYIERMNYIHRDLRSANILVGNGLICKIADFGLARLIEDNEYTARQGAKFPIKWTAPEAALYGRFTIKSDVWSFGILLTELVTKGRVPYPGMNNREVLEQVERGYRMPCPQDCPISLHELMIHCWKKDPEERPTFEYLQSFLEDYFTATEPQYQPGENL
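Wherever SH2 binding enrichment of the phosphorylated peptide, bacterial display is given: peptide library displayed on the E. coli surface as eCPX fusions, selected cells deep-sequenced, score is each peptide's frequency after selection divided by its frequency in the input.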
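Wherever phosphorylation enrichment, bacterial display is given: 11-residue human phosphosite peptides and single-mutation variants displayed on the E. coli surface, counted by deep sequencing, each peptide's frequency after selection divided by its frequency in the unselected input library; frequency after pTyr selection over input frequency; kinase dosed for 20-30% of maximal phosphorylation in three min.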

Sequence	SH2 binding enrichment [1]	SH2 binding enrichment [2]	SH2 binding enrichment [3]	phosphorylation enrichment [4]	phosphorylation enrichment [5]	phosphorylation enrichment [6]	phosphorylation enrichment [7]	phosphorylation enrichment [8]	phosphorylation enrichment [9]	phosphorylation enrichment [10]	phosphorylation enrichment [11]	phosphorylation enrichment [12]	phosphorylation enrichment [13]	phosphorylation enrichment [14]	phosphorylation enrichment [15]	phosphorylation enrichment [16]
TTKAKYKTPTF [PLD2_Y573_YF]	0.778	0.509	0.693	0.235	0.4	0.224	0.476	0.309	0.416	0.374	0.305	0.39	0.417	0.551	0.357	0.326
TVSSDYLHPQF [CCPG1_Y569_F566S_YF]	0.848	0.527	0.704	0.538	0.444	0.514	0.927	0.753	0.779	0.411	0.823	0.457	1.8	0.877	0.495	0.404
TYGVLYKARNK [CDK2_Y19_V18L]	0.962	0.406	0.624	0.532	2.86	0.394	0.691	0.483	0.565	0.689	0.398	3.29	0.539	0.519	0.438	2.88
VAFVYYKSIGP [ADGRL4_Y302]	0.838	0.574	0.75	0.653	0.524	0.656	1.6	0.872	1.3	0.442	0.678	0.465	1.41	0.907	0.658	0.432
VASSLYDIFAR [GLB1_Y294_L297F]	1.02	0.714	0.884	1.81	8.55	0.637	0.948	0.714	0.927	11.4	1.46	6.38	1.09	1.25	3.12	6.66
VDTFWYKLLKR [EPM2A_Y86_F88L]	1.04	0.646	0.66	0.548	0.331	0.439	1.06	0.644	0.937	0.342	0.493	0.347	0.971	0.748	0.456	0.372
VGTKRYMASEV [ACVRL1_Y375_P378S]	1.06	0.45	0.599	0.364	0.398	0.411	0.602	0.333	0.533	0.389	0.406	0.513	0.564	0.509	0.38	0.4
VKKKLYEEIDQ [CYP17A1_Y329]	0.758	8.78	0.412	0.541	0.493	0.444	0.98	0.601	0.764	0.347	0.535	0.361	0.924	0.66	0.372	0.373
VLVSQYEKLDA [AMZ2_Y26_N30D]	0.896	7.26	0.602	0.606	0.484	0.366	0.826	0.589	0.738	0.462	0.561	0.539	0.808	0.586	0.47	0.489
VNFDFYTVNLG [GFPT1_Y367_D366Y_YF]	1.03	0.632	0.98	0.772	1.81	0.593	1.33	0.75	1.23	1.97	0.804	2.27	1.29	0.762	0.758	3.26
VPFARYLAMNK [HARS1_Y138]	0.739	0.576	0.561	0.43	0.381	0.388	0.516	0.442	0.361	0.376	0.379	0.362	0.432	0.328	0.334	0.382
VPLLEYFRDIF [CDAN1_Y712_YF]	1.44	1.13	1.38	0.715	0.566	0.687	1.6	0.943	1.41	0.56	0.523	0.52	1.42	1.06	0.584	0.543
VRFMAYTDETC [F8_Y450_F455C]	0.83	0.627	1.03	0.59	0.662	0.544	1.3	0.773	1.05	0.431	0.649	0.413	1.11	0.973	0.522	0.403
WHFTFYNELRV [ACTC1_Y93_H90Y_YF]	0.782	0.535	0.483	0.671	0.635	0.542	1.5	1.07	1.2	0.392	0.784	0.42	1.42	1.27	0.578	0.413

Further lines, with some results ahead:

SH2 binding enrichment [1]	SH2 binding enrichment [2]	SH2 binding enrichment [3]	Sequence	phosphorylation enrichment [4]	phosphorylation enrichment [5]	phosphorylation enrichment [6]	phosphorylation enrichment [7]	phosphorylation enrichment [8]	phosphorylation enrichment [9]	phosphorylation enrichment [10]	phosphorylation enrichment [11]	phosphorylation enrichment [12]	phosphorylation enrichment [13]	phosphorylation enrichment [14]	phosphorylation enrichment [15]	phosphorylation enrichment [16]
0.534	0.515	0.54	TTASRYLKVSD [MYOM2_Y871_N869S]	0.293	0.311	0.366	0.636	0.467	0.434	0.313	0.347	0.362	0.489	0.54	0.377	0.373
0.711	10.3	2.78	TTPYNYSYIFK [RAB14_Y8_A4T]	2.71	0.861	1.24	0.658	0.893	0.655	5.37	9.01	0.712	0.895	0.706	0.97	0.593
0.626	1.08	0.701	TVVVPYEPPEV [TP53_Y220_S215T]	0.439	0.458	0.528	1.16	0.62	1.35	0.549	0.548	0.537	1.08	0.89	0.512	0.475
1.08	4.54	0.731	TWEKPYECVQC [ZNF24_Y335_G331W]	0.601	0.623	0.516	0.964	0.648	0.84	0.492	0.521	0.887	0.904	0.534	4.82	0.489
0.899	0.684	0.661	TWQSMYGCDVG [HLA-B_Y123_L119W]	0.63	0.498	0.533	1.22	0.802	1.37	0.6	0.933	0.735	1.02	1.03	0.548	0.531
0.702	0.579	0.755	TYGQVYKGPHV [TNIK_Y40_R43P]	0.633	7.7	0.534	0.751	0.468	0.826	0.618	0.586	9.04	0.68	0.666	0.398	12.4
1.22	1.01	1.51	VASIFYTLVIP [OR8K3_Y277]	0.769	0.661	1.72	1.49	1.63	1.45	5.43	0.978	0.945	1.83	0.882	2.79	0.502
1.02	0.683	0.98	VDEERYDIEGK [TNNI3_Y112_A116G]	0.74	0.623	0.539	1.3	0.754	1.3	0.491	0.737	0.509	1.44	0.896	0.561	0.506
0.713	0.436	0.682	VDLIVYLWTNP [TK2_Y181_R183W]	0.501	0.456	0.483	1.29	0.955	1.21	0.397	0.643	0.423	1.15	0.897	0.841	0.421
0.694	0.415	0.772	VGGRIYIDDAL [PKLR_Y218_G222A]	0.497	0.486	0.542	1.06	0.612	0.767	0.402	0.51	0.419	0.86	0.737	0.547	0.462
0.858	3.79	1.21	VISNAYVDLAP [HSD17B4_Y602]	0.557	0.471	0.89	0.777	0.653	0.707	0.589	0.436	0.435	0.675	0.475	0.516	0.428
0.693	0.454	0.528	VNFQPYRKHKF [TEX37_Y28_D24N_YF]	0.386	0.459	0.365	0.545	0.371	0.408	0.43	0.34	0.431	0.546	0.542	0.373	0.439
1.01	0.71	0.736	VNTMLYEKFTF [TEK_Y1108_T1106M_YF]	4.34	6.73	0.621	1.22	0.697	0.917	8.45	6.33	6.07	1.29	2.38	13.7	5.93
0.777	0.568	0.771	VNYQPYRKHKY [TEX37_Y28_D24N]	0.444	0.451	0.419	0.498	0.501	0.409	0.351	0.367	0.537	0.578	0.688	0.41	0.352
0.815	0.632	0.69	VQVAFYTVMMN [SPATA17_Y84_M86V_YF]	0.737	0.605	0.643	1.44	0.959	1.36	1.84	1.17	0.71	1.18	1.07	0.677	0.567
0.876	0.497	0.667	VSAPEYGPKLK [TBC1D14_Y46_L41V]	0.391	0.465	0.476	0.678	0.504	0.556	0.394	0.452	0.369	0.644	0.469	0.452	0.437
0.984	1.08	0.856	VVEDGYEFFAK [PPP1CB_Y254]	0.792	0.491	0.518	0.988	0.615	1.01	0.392	0.473	0.504	1.41	0.574	0.42	0.571
0.862	0.727	3.12	VYLGAYDRFLP [SLC22A5_Y486]	2.53	5.32	0.948	0.992	0.803	0.74	4.72	1.82	4.49	1.25	1.2	1.88	4.5
0.653	0.705	0.715	VYYGSYSCPYG [NKAP_Y104_R106C]	3.08	4.99	4.04	1.47	2.87	2.28	4.18	2.45	6.91	2.87	4.15	1.59	8.17
